Measured values as given in the supplement of paper PMC9112550, “Optimization of the antimicrobial peptide Bac7 by deep mutational scanning” (BMC Biology, 2022).

System: Escherichia coli TOP10
Test: shrunken log2 fold change of peptide-encoding DNA abundance (4.5 h post-induction vs induction); higher = less antimicrobial activity (less host growth inhibition)
Conditions: time post-induction: 4.5 h; library: site-saturation at positions 5, 18, 19, 20
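Note: peptides expressed intracellularly from a pBAD plasmid library in pooled LB shake-flask culture, induced with 0.3% L-arabinose, DNA abundance read by NGS, three biological replicates, DESeq2 with apeglm shrinkage.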

## RRIRMRPPRLPRPRPRPGCIPRP
  shrunken log2 fold change: 0.0871

## RRIRFRPPRLPRPRPRPWKNPRP
  shrunken log2 fold change: 0.0106

## RRIRHRPPRLPRPRPRPFNIPRP
  shrunken log2 fold change: 0.0518

## RRIRGRPPRLPRPRPRPLCDPRP
  shrunken log2 fold change: 0.778

## RRIRHRPPRLPRPRPRPGQEPRP
  shrunken log2 fold change: -0.00664

## RRIRMRPPRLPRPRPRPAWSPRP
  shrunken log2 fold change: 0.44

## RRIRCRPPRLPRPRPRPVHSPRP
  shrunken log2 fold change: -0.107

## RRIRCRPPRLPRPRPRPMQAPRP
  shrunken log2 fold change: 0.249

## RRIRERPPRLPRPRPRPGMVPRP
  shrunken log2 fold change: 0.217

## RRIRTRPPRLPRPRPRPIMPPRP
  shrunken log2 fold change: -0.331

## RRIRTRPPRLPRPRPRPKMDPRP
  shrunken log2 fold change: 0.0289

## RRIRRRPPRLPRPRPRPFFEPRP
  shrunken log2 fold change: 0.18

## RRIRGRPPRLPRPRPRPHNTPRP
  shrunken log2 fold change: -0.277

## RRIRVRPPRLPRPRPRPEDLPRP
  shrunken log2 fold change: 0.084

## RRIRPRPPRLPRPRPRPGQGPRP
  shrunken log2 fold change: 0.201

## RRIRRRPPRLPRPRPRPNSRPRP
  shrunken log2 fold change: -0.0456

## RRIRFRPPRLPRPRPRPRFHPRP
  shrunken log2 fold change: -0.409

## RRIRSRPPRLPRPRPRPFTTPRP
  shrunken log2 fold change: -0.392

## RRIRIRPPRLPRPRPRPRFIPRP
  shrunken log2 fold change: -0.636

## RRIRIRPPRLPRPRPRPFAFPRP
  shrunken log2 fold change: -0.155

## RRIRYRPPRLPRPRPRPRMDPRP
  shrunken log2 fold change: -0.0437

## RRIRERPPRLPRPRPRPSPNPRP
  shrunken log2 fold change: -0.328

## RRIRRRPPRLPRPRPRPCAIPRP
  shrunken log2 fold change: 3.08

## RRIRTRPPRLPRPRPRPFCMPRP
  shrunken log2 fold change: -0.24

## RRIRYRPPRLPRPRPRPQCFPRP
  shrunken log2 fold change: -0.00674

## RRIRYRPPRLPRPRPRPFSTPRP
  shrunken log2 fold change: -0.0961

## RRIRERPPRLPRPRPRPPKYPRP
  shrunken log2 fold change: -0.294

## RRIRRRPPRLPRPRPRPGQIPRP
  shrunken log2 fold change: 0.0802

## RRIRMRPPRLPRPRPRPFNKPRP
  shrunken log2 fold change: -0.52

## RRIRHRPPRLPRPRPRPKCYPRP
  shrunken log2 fold change: -0.0358

## RRIRTRPPRLPRPRPRPMPTPRP
  shrunken log2 fold change: 0.0982

## RRIRWRPPRLPRPRPRPNRHPRP
  shrunken log2 fold change: 0.0506

## RRIRWRPPRLPRPRPRPIFGPRP
  shrunken log2 fold change: 0.0623

## RRIRIRPPRLPRPRPRPVRDPRP
  shrunken log2 fold change: 0.158

## RRIRKRPPRLPRPRPRPIKHPRP
  shrunken log2 fold change: 0.567

## RRIRFRPPRLPRPRPRPQASPRP
  shrunken log2 fold change: 0.0447

## RRIRRRPPRLPRPRPRPWREPRP
  shrunken log2 fold change: -0.0799

## RRIRHRPPRLPRPRPRPHFCPRP
  shrunken log2 fold change: -0.0593

## RRIRYRPPRLPRPRPRPCCLPRP
  shrunken log2 fold change: -0.203

## RRIRCRPPRLPRPRPRPYGMPRP
  shrunken log2 fold change: -0.0815

## RRIRSRPPRLPRPRPRPNYVPRP
  shrunken log2 fold change: -0.906

## RRIRTRPPRLPRPRPRPQRDPRP
  shrunken log2 fold change: 0.347

## RRIRWRPPRLPRPRPRPLLYPRP
  shrunken log2 fold change: 0.0998

## RRIRGRPPRLPRPRPRPMCQPRP
  shrunken log2 fold change: 0.62

## RRIRQRPPRLPRPRPRPQAIPRP
  shrunken log2 fold change: 0.0712

## RRIRCRPPRLPRPRPRPWFSPRP
  shrunken log2 fold change: -0.208

## RRIRKRPPRLPRPRPRPHATPRP
  shrunken log2 fold change: 1.06

## RRIRIRPPRLPRPRPRPKIPPRP
  shrunken log2 fold change: -0.212

## RRIRYRPPRLPRPRPRPGMMPRP
  shrunken log2 fold change: -0.426

## RRIRERPPRLPRPRPRPWWIPRP
  shrunken log2 fold change: -0.021

## RRIRMRPPRLPRPRPRPHDNPRP
  shrunken log2 fold change: 0.0232

## RRIRGRPPRLPRPRPRPVQLPRP
  shrunken log2 fold change: 0.0748

## RRIRPRPPRLPRPRPRPKFGPRP
  shrunken log2 fold change: -0.0973

## RRIRFRPPRLPRPRPRPWPSPRP
  shrunken log2 fold change: -0.0611

## RRIRGRPPRLPRPRPRPNQFPRP
  shrunken log2 fold change: 0.0521

## RRIRRRPPRLPRPRPRPGPMPRP
  shrunken log2 fold change: 0.353

## RRIRVRPPRLPRPRPRPERIPRP
  shrunken log2 fold change: -0.00978

## RRIRVRPPRLPRPRPRPLKNPRP
  shrunken log2 fold change: -0.0569

## RRIRHRPPRLPRPRPRPIHIPRP
  shrunken log2 fold change: -0.733

## RRIRARPPRLPRPRPRPYAMPRP
  shrunken log2 fold change: 0.0392

## RRIRWRPPRLPRPRPRPVRHPRP
  shrunken log2 fold change: 0.245

## RRIRKRPPRLPRPRPRPQCTPRP
  shrunken log2 fold change: -0.0504

## RRIRSRPPRLPRPRPRPVQIPRP
  shrunken log2 fold change: 0.111

## RRIRKRPPRLPRPRPRPASHPRP
  shrunken log2 fold change: 0.442

## RRIRVRPPRLPRPRPRPYAMPRP
  shrunken log2 fold change: -0.11

## RRIRDRPPRLPRPRPRPDHPPRP
  shrunken log2 fold change: -0.76

## RRIRRRPPRLPRPRPRPVKEPRP
  shrunken log2 fold change: -0.128

## RRIRFRPPRLPRPRPRPRPVPRP
  shrunken log2 fold change: 0.633

## RRIRWRPPRLPRPRPRPGFKPRP
  shrunken log2 fold change: -0.143

## RRIRHRPPRLPRPRPRPFHGPRP
  shrunken log2 fold change: -0.121

## RRIRNRPPRLPRPRPRPFLVPRP
  shrunken log2 fold change: -0.0697

## RRIRPRPPRLPRPRPRPWFQPRP
  shrunken log2 fold change: -0.21

## RRIRQRPPRLPRPRPRPHCEPRP
  shrunken log2 fold change: -0.0142

## RRIRERPPRLPRPRPRPERMPRP
  shrunken log2 fold change: -0.0648

## RRIRRRPPRLPRPRPRPSQQPRP
  shrunken log2 fold change: -0.0599

## RRIRERPPRLPRPRPRPLSHPRP
  shrunken log2 fold change: -0.314

## RRIRERPPRLPRPRPRPYLGPRP
  shrunken log2 fold change: -0.12

## RRIRWRPPRLPRPRPRPHSVPRP
  shrunken log2 fold change: 0.0489

## RRIRGRPPRLPRPRPRPCSCPRP
  shrunken log2 fold change: 0.105

## RRIRVRPPRLPRPRPRPPLAPRP
  shrunken log2 fold change: 0.425

## RRIRARPPRLPRPRPRPISEPRP
  shrunken log2 fold change: 0.0696

## RRIRQRPPRLPRPRPRPFGRPRP
  shrunken log2 fold change: 0.037

## RRIRGRPPRLPRPRPRPFWVPRP
  shrunken log2 fold change: 0.15

## RRIRGRPPRLPRPRPRPMDLPRP
  shrunken log2 fold change: 0.241

## RRIRQRPPRLPRPRPRPRCAPRP
  shrunken log2 fold change: 0.385

## RRIRARPPRLPRPRPRPYTQPRP
  shrunken log2 fold change: -0.593

## RRIRKRPPRLPRPRPRPQFNPRP
  shrunken log2 fold change: -0.281

## RRIRCRPPRLPRPRPRPNACPRP
  shrunken log2 fold change: -0.0874

## RRIRIRPPRLPRPRPRPFWCPRP
  shrunken log2 fold change: -0.014

## RRIRMRPPRLPRPRPRPLDCPRP
  shrunken log2 fold change: 0.262

## RRIRCRPPRLPRPRPRPLPYPRP
  shrunken log2 fold change: -0.804

## RRIRRRPPRLPRPRPRPWPWPRP
  shrunken log2 fold change: 0.0938

## RRIRNRPPRLPRPRPRPVRCPRP
  shrunken log2 fold change: 0.0872

## RRIRLRPPRLPRPRPRPYWHPRP
  shrunken log2 fold change: -0.61

## RRIRDRPPRLPRPRPRPEECPRP
  shrunken log2 fold change: -0.00963

## RRIRNRPPRLPRPRPRPAYKPRP
  shrunken log2 fold change: -0.128

## RRIRHRPPRLPRPRPRPEVHPRP
  shrunken log2 fold change: 0.16

## RRIRRRPPRLPRPRPRPMRTPRP
  shrunken log2 fold change: 0.911

## RRIRARPPRLPRPRPRPQDDPRP
  shrunken log2 fold change: 0.274

## RRIRIRPPRLPRPRPRPKQQPRP
  shrunken log2 fold change: 0.0512

## RRIRFRPPRLPRPRPRPEFLPRP
  shrunken log2 fold change: 0.0354

## RRIRDRPPRLPRPRPRPTCMPRP
  shrunken log2 fold change: -0.0434

## RRIRTRPPRLPRPRPRPDYLPRP
  shrunken log2 fold change: -1.61

## RRIRTRPPRLPRPRPRPAADPRP
  shrunken log2 fold change: 0.453

## RRIRNRPPRLPRPRPRPPKGPRP
  shrunken log2 fold change: 0.112

## RRIRPRPPRLPRPRPRPLIIPRP
  shrunken log2 fold change: -0.605

## RRIRERPPRLPRPRPRPSMKPRP
  shrunken log2 fold change: -0.607

## RRIRCRPPRLPRPRPRPVACPRP
  shrunken log2 fold change: -0.0888

## RRIRWRPPRLPRPRPRPYHDPRP
  shrunken log2 fold change: -0.868

## RRIRHRPPRLPRPRPRPRCFPRP
  shrunken log2 fold change: -0.143

## RRIRIRPPRLPRPRPRPQWHPRP
  shrunken log2 fold change: -0.381

## RRIRQRPPRLPRPRPRPTRAPRP
  shrunken log2 fold change: 0.647

## RRIRRRPPRLPRPRPRPCEHPRP
  shrunken log2 fold change: -0.212

## RRIRQRPPRLPRPRPRPNGTPRP
  shrunken log2 fold change: 1.1

## RRIRRRPPRLPRPRPRPGQVPRP
  shrunken log2 fold change: 0.239

## RRIRIRPPRLPRPRPRPFNDPRP
  shrunken log2 fold change: -0.0749

## RRIRYRPPRLPRPRPRPCQMPRP
  shrunken log2 fold change: -0.255

## RRIRNRPPRLPRPRPRPTSQPRP
  shrunken log2 fold change: 0.187

## RRIRRRPPRLPRPRPRPHSDPRP
  shrunken log2 fold change: -0.0198

## RRIRERPPRLPRPRPRPGCVPRP
  shrunken log2 fold change: 0.118

## RRIRYRPPRLPRPRPRPFPKPRP
  shrunken log2 fold change: -0.28

## RRIRCRPPRLPRPRPRPGQFPRP
  shrunken log2 fold change: -0.564

## RRIRQRPPRLPRPRPRPRWHPRP
  shrunken log2 fold change: 0.197

## RRIRTRPPRLPRPRPRPYSCPRP
  shrunken log2 fold change: -0.0718

## RRIRSRPPRLPRPRPRPKWHPRP
  shrunken log2 fold change: 0.0951

## RRIRSRPPRLPRPRPRPSNFPRP
  shrunken log2 fold change: -0.379

## RRIRIRPPRLPRPRPRPLIPPRP
  shrunken log2 fold change: -0.692

## RRIRERPPRLPRPRPRPYHGPRP
  shrunken log2 fold change: -0.47

## RRIRMRPPRLPRPRPRPQCHPRP
  shrunken log2 fold change: 0.0857

## RRIRRRPPRLPRPRPRPKTHPRP
  shrunken log2 fold change: 0.126

## RRIRARPPRLPRPRPRPAAMPRP
  shrunken log2 fold change: 0.856

## RRIRNRPPRLPRPRPRPNTKPRP
  shrunken log2 fold change: -0.306

## RRIRIRPPRLPRPRPRPPRYPRP
  shrunken log2 fold change: -0.217

## RRIRTRPPRLPRPRPRPTCLPRP
  shrunken log2 fold change: -0.216

## RRIRRRPPRLPRPRPRPWIKPRP
  shrunken log2 fold change: 0.0892

## RRIRSRPPRLPRPRPRPDPQPRP
  shrunken log2 fold change: 0.282

## RRIRMRPPRLPRPRPRPETLPRP
  shrunken log2 fold change: -0.0225

## RRIRNRPPRLPRPRPRPEPIPRP
  shrunken log2 fold change: 0.0458

## RRIRFRPPRLPRPRPRPTQVPRP
  shrunken log2 fold change: -0.284

## RRIRSRPPRLPRPRPRPKAMPRP
  shrunken log2 fold change: -0.148

## RRIRVRPPRLPRPRPRPLYKPRP
  shrunken log2 fold change: -0.584

## RRIRSRPPRLPRPRPRPGCQPRP
  shrunken log2 fold change: 0.287

## RRIRCRPPRLPRPRPRPYGSPRP
  shrunken log2 fold change: -0.517

## RRIRERPPRLPRPRPRPQHDPRP
  shrunken log2 fold change: -0.265

## RRIRKRPPRLPRPRPRPPCKPRP
  shrunken log2 fold change: -0.242

## RRIRVRPPRLPRPRPRPYNRPRP
  shrunken log2 fold change: -0.0579

## RRIRVRPPRLPRPRPRPCEHPRP
  shrunken log2 fold change: -0.0331

## RRIRFRPPRLPRPRPRPLIDPRP
  shrunken log2 fold change: -0.227

## RRIRGRPPRLPRPRPRPWKQPRP
  shrunken log2 fold change: 0.152

## RRIRERPPRLPRPRPRPQKHPRP
  shrunken log2 fold change: -0.608
